These results are taken from patent US20130252251A1 (CENTRE NATIONAL DE LA RECHERCHE SCIENTIFIQUE, published 2013).

Test [1] addresses membrane receptor interacting with BLV. Briefly: flow cytometry, tagged RBD on sputum neutrophils of one CF patient. (In general: A flow cytometer gives signals particle by particle.)
Test [2] has the same target. Briefly: flow cytometry, tagged RBD on blood neutrophils of healthy control donors (N=8).
For test [3] the target is unchanged. Briefly: flow cytometry, tagged RBD on blood neutrophils of rheumatoid arthritis patients (N=9).
Test [4] has the same target. As to the kind of experiment: flow cytometry, tagged RBD on blood neutrophils of one CF patient.
For test [5], the target named is PAR (PeRV A Receptor) receptors: human Riboflavin Transporter 1 (hRFT1 or PAR2) and hRFT3 (or PAR1). As to the kind of experiment: flow cytometry, tagged RBD on sputum neutrophils of one CF patient.
Test [6] shares this target. As to the kind of experiment: flow cytometry, tagged RBD on blood neutrophils of healthy control donors (N=8).
Test [7] has the same target. As to the kind of experiment: flow cytometry, tagged RBD on blood neutrophils of rheumatoid arthritis patients (N=9).
The target is the same in test [8]. Briefly: flow cytometry, tagged RBD on blood neutrophils of one CF patient.
Test [9] addresses T1, ASCT2 membrane receptor (human, UniProt Q15758 1-541).
T1 construct: whole, on cells; Endogenous receptor on primary blood or sputum neutrophils; also called ASTC2
T1 sequence: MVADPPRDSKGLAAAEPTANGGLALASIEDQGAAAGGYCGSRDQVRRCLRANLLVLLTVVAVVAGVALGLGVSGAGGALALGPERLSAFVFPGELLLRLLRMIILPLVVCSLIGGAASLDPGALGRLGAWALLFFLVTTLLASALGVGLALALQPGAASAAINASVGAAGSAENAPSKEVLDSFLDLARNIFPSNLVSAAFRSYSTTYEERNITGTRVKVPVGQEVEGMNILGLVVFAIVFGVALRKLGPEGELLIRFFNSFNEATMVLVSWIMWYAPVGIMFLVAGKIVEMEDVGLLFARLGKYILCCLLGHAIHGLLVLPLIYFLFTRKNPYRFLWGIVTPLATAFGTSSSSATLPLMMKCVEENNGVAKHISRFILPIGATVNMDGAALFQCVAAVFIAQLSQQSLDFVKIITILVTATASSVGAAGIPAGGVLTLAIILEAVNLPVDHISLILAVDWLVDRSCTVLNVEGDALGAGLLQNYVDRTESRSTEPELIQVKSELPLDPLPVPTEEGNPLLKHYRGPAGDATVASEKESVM
Briefly: flow cytometry, tagged RBD on blood neutrophils of rheumatoid arthritis patients (N=9).

Test [10] deals with T1, ASCT2 membrane receptor. As to the kind of experiment: flow cytometry, tagged RBD on blood neutrophils of healthy control donors (N=8).
Test [11] addresses T2, PiT2 membrane receptor (human, UniProt Q08357 1-652).
T2 construct: whole, on cells; Endogenous receptor on primary blood or sputum neutrophils; also called FiT2
T2 sequence: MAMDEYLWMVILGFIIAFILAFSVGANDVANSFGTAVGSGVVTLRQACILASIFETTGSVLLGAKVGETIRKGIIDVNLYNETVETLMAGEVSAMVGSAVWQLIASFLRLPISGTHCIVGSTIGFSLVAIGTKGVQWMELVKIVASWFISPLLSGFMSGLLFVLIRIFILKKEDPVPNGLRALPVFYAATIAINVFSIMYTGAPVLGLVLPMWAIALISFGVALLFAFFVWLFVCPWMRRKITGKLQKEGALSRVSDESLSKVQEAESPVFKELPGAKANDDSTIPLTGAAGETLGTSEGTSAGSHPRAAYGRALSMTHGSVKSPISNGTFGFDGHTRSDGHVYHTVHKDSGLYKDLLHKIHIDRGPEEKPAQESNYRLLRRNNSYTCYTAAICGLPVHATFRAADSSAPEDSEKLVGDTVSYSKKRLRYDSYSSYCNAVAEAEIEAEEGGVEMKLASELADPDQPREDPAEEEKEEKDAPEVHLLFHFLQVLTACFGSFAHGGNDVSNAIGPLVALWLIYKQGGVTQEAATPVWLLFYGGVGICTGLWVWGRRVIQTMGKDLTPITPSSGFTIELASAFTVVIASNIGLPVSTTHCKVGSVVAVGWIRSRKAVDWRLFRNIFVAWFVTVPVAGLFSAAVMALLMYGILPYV
Briefly: flow cytometry, tagged RBD on blood neutrophils of rheumatoid arthritis patients (N=9).

In test [12] the target is T2, PiT2 membrane receptor. As to the kind of experiment: flow cytometry, tagged RBD on blood neutrophils of healthy control donors (N=8).
Test [13] concerns the target T3, GLUT1 membrane receptor (human, UniProt P11166 1-492).
T3 construct: whole, on cells; Endogenous receptor on primary blood or sputum neutrophils
T3 sequence: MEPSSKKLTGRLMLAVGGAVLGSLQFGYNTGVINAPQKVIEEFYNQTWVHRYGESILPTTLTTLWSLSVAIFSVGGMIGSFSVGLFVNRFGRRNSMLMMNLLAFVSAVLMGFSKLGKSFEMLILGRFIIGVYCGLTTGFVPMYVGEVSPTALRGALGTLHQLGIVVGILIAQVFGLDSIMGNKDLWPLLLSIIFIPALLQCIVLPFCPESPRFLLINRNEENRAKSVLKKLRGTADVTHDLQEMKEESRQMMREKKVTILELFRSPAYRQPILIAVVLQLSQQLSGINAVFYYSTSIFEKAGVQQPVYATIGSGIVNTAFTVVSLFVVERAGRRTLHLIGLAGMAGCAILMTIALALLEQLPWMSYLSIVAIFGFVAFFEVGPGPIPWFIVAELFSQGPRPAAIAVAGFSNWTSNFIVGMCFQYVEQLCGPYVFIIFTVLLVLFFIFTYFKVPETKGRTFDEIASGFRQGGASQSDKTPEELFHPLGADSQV
Briefly: flow cytometry, tagged RBD on blood neutrophils of rheumatoid arthritis patients (N=9).

Test [14] has as its target T3, GLUT1 membrane receptor. As to the kind of experiment: flow cytometry, tagged RBD on blood neutrophils of healthy control donors (N=8).
Test [15] has as its target T4, PiT1 membrane receptor (human, UniProt Q8WUM9 1-679).
T4 construct: whole, on cells; Endogenous receptor on primary blood or sputum neutrophils
T4 sequence: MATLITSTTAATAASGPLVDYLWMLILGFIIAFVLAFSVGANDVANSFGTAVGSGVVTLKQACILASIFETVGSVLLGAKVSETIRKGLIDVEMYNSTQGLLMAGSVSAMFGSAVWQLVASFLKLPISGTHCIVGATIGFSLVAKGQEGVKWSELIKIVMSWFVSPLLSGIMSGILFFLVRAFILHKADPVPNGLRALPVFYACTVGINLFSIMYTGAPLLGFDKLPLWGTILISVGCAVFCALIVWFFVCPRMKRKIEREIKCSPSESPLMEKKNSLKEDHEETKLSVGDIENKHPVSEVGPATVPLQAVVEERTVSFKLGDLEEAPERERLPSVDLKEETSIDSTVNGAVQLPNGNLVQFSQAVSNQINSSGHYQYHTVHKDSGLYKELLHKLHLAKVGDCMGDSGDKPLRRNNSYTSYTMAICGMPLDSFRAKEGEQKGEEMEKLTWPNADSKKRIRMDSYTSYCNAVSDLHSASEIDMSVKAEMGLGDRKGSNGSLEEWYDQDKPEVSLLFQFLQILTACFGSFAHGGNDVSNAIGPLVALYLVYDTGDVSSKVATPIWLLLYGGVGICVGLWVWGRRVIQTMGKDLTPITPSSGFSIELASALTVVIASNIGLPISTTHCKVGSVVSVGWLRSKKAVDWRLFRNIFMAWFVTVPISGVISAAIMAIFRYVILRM
As to the kind of experiment: flow cytometry, tagged RBD on blood neutrophils of rheumatoid arthritis patients (N=9).

In test [16] the target is T4, PiT1 membrane receptor. Briefly: flow cytometry, tagged RBD on blood neutrophils of healthy control donors (N=8).

Turning to “Bovine Leukaemia Virus receptor-binding domain (BLV RBD) (from UniProt P25507 34-215) (ligand)”, the deltaGeomean of fluorescence in test [1] is 140; in test [4], 0. The results for the deltaMedian of fluorescence (median) in [2] and in test [3] were 3550 and 2750, respectively.
On to “Porcine Endogeneous Retrovirus-A receptor-binding domain (PERVA RBD) (ligand)”, for which the deltaGeomean of fluorescence in test [5] stood at 284; in [8], 4160. Also, the results for the deltaMedian of fluorescence (median) in test [6] and in test [7] were 3740 and 2320, respectively.

B1: Feline endogenous retrovirus receptor-binding domain (RD114 RBD) (ligand)
chain: GFDDPRKAIALVQKQHGKPCECSGGQVSEAPPNSIQQVTCPGKTAYLMTNQKWKCRVTPKISPSGGELQNCPCNTFQDSMHSSCYTEYRQCRRINKTYYTATLLKIRSGSLNEVQILQNPNQLLQSPCRGSINQPVCWSATAPIHISDGGGPLDTKRVWTVQKRLEQIHKAMTPELQYHPLALPKVRDDLSLDARTFDILNTTFRLLQMSNFSLAQDCWLC
notes: not shown: tag: EGFP, mouse-IgG Fc or rabbit-IgG Fc
As for B1, the “deltaMedian of fluorescence (median)” value with ASCT2 membrane receptor [9] stood at 1650; in the test with ASCT2 membrane receptor [10], 1630.

B2: Amphotropic Murine Leukemia Retrovirus receptor-binding domain (AMLV RBD) (ligand)
chain: AESPHQVFNVTWRVTNLMTGRTANATSLLGTVQDAFPKLYFDLCDLVGEEWDPSDQEPYVGYGCKYPAGRQRTRTFDFYVCPGHTVKSGCGGPGEGYCGKWGCETTGQAYWKPTSSWDLISLKRGNTPWDTGCSKVACGPCYDLSKVSNSFQGATRGGRCNPLVLEFTDAGKKANWDGPKSWGLRLYRTGTDPITMFSLTRQVLNVGPRVPIGPNPVLPDQRLPSSPIEIVPAPQPPSPLNTSYPPSTTSTPSTSPTSPSVPQPPPGTGDRLLALVKGAYQALNLTNPDKTQECWLC
notes: as for B1
For B2, the “deltaMedian of fluorescence (median)” value came to 2860 with PiT2 membrane receptor [11] and 3930 with PiT2 membrane receptor [12].

B3: Human T Leukaemia Virus-2 receptor-binding domain (HTLV-2 RBD) (ligand)
chain: QQSRCTLTVGISSYHSSPCSPTQPVCTWNLDLNSLTTDQRLHPPCPNLITYSGFHKTYSLYLFPHWIKKPNRQGLGYYSPSYNDPCSLQCPYLGCQSWTCPYTGPVSSPSWKFHSDVNFTQEVSQVSLRLHFSKCGSSMTLLVDAPGYDPLWFITSEPTQPPPTSPPLVHDSDLEHVLTPSTSWTTKILKFIQLTLQSTNYSCMVC
notes: as for B1
In the case of B3, the entries for the “deltaMedian of fluorescence (median)” value with GLUT1 membrane receptor [13] and in the test with GLUT1 membrane receptor [14] were 3180 and 4670, respectively.

B4: Koala endogeneous Retrovirus receptor-binding domain (KoRV RBD) (ligand)
chain: NQQHNNPHQPMTLTWQVLSQTGSVVWEKKAVEPPWTWWPSLEPDVCALVAGLESWDIPELTASASQQARPPDSNYEHAYNQITWGTLGCSYPRARTRIARSQFYVCPRDGRSLSEARRCGGLESLYCKEWGCETAGTAYWQPRSSWDLITVGQGHPTGTCERTGWCNPLKIEFTEPGKRFRNWLQGRTWGLRFYVTGHPGVQLTIRLVITSPPPVVVGPDPVLAEQGPPRKIPFLPRVPVPTLSPPASPIPTVQASPPAPSTPSPTTGDRLFGLVQGAFLALNATNPEATESCWLC
notes: as for B1
For B4, the entries for the “deltaMedian of fluorescence (median)” value in the test with PiT1 membrane receptor [15] and with PiT1 membrane receptor [16] were 1880 and 2640, respectively.
